These results are taken from paper PMC9457596, “Optimization of Bifunctional Antisense Oligonucleotides for Regulation of Mutually Exclusive Alternative Splicing of PKM Gene”.

For data set [1], the target named is T1, hnRNP A1 (UniProt P09651 2-196). Nature of the data set: EMSA; 60 uM protein, 0.5 uM RNA; 150 mM KCl, 50 mM L-Arg, 50 mM L-Glu, 1.5 mM MgCl2, 0.2 mM EDTA, 0.05% BME, 20 mM Na2HPO4, pH 7.0, 4 C, 30 min; 0.5 uM RNA, 0.1-60 uM protein (Kd) or 60 uM (scr). The conditions noted are these: protein: recombinant; label: 5'-6-FAM.
Data set [2] concerns the target T1, hnRNP A1. Nature of the data set: EMSA; 150 mM KCl, 50 mM L-Arg, 50 mM L-Glu, 1.5 mM MgCl2, 0.2 mM EDTA, 0.05% BME, 20 mM Na2HPO4, pH 7.0, 4 C, 30 min; 0.5 uM RNA, 0.1-60 uM protein (Kd) or 60 uM (scr). The conditions noted are these: protein: recombinant, label: 5'-6-FAM.

T1 sequence (P09651 2-196): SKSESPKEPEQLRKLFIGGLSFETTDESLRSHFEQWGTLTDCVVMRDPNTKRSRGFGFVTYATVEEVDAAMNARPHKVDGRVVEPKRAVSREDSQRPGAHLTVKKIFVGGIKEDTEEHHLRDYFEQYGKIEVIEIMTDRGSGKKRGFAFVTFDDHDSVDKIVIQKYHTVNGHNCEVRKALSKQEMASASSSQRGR

B1: oligo 7 (ssRNA)
RNA: UGUAGG
Consider B1, for which the binding result in data set [1] is given as “binds”.

B2: C2 (ssRNA)
RNA: UAGGAUAGGA
Turning to B2, the Kd in data set [2] (single-stranded) amounted to 1440 nM.

B3: oligo 41 (ssRNA)
RNA: AUUUA
For the molecule B3, the binding result in data set [1] is recorded as “no binding”.

B4: oligo 5 (ssRNA)
RNA: UAGG
For B4, the binding result in data set [1] is on record as “binds”.

B5: A3 (ssRNA)
RNA: CAGGUAAGUCAGGUAAGUCAGGUAAGU
As to B5, the Kd in data set [2] (no UV melting transition) is approximately 1700 nM.

B6: oligo 21 (ssRNA)
RNA: CACAGA
As for B6, the binding result in data set [1] was “no binding”.

B7: D2 (structured_RNA)
RNA: UAGGUUAGGU
As to B7, the dissociation constant (Kd) in data set [2] (G4, intermolecular, two tetrads) came out at 1200 nM.

B8: sequence D (ssRNA)
RNA: UAGGU
Regarding B8, in data set [1], the binding result is on record as “binds”.

B9: B2 (structured_RNA)
RNA: CAGGUGAGUCAGGUGAGU
For B9, the Kd in data set [2] (duplex/hairpin) worked out at 1760 nM.

B10: B3 (structured_RNA)
RNA: CAGGUGAGUCAGGUGAGUCAGGUGAGU
For the molecule B10, in data set [2] (duplex/hairpin), the Kd worked out at 1990 nM.

B11: A2 (ssRNA)
RNA: CAGGUAAGUCAGGUAAGU
Regarding B11, in data set [2] (no UV melting transition), the Kd is approximately 1700 nM.

B12: sequence A (1) (ssRNA)
RNA: CAGGUAAGU
With B12, the binding result in data set [1] is reported as “binds”.

B13: oligo 20 (ssRNA)
RNA: AAGGUGAU
On to B13, for which the binding result in data set [1] is given as “no binding”.

B14: sequence B (2) (ssRNA)
RNA: CAGGUGAGU
Take B14: in data set [1], the binding result was “binds”.

B15: oligo 6 (ssRNA)
RNA: AAGGUAAGU
As for B15, the binding result in data set [1] is recorded as “binds”.

B16: sequence C (3) (ssRNA)
RNA: UAGGA
For B16, in data set [1], the binding result was “binds”.

One may read the Kd as the equilibrium constant for the complex coming apart.
